Legend:
[1] = target: Recombinant Human FGFR1 alpha (IIIc) Fc Chimera Protein (R&D systems, 658-FR-050) (human) (UniProt P11362); assay: ELISA: FGFR1 alpha (IIIc)-Fc coated at 0.5 ug/ml; FGF sample at 80 ng/mL after 6 h at 37°C; detected with biotinylated anti-FGF antibody BAM233 and streptavidin-HRP; blank subtracted
[2] = target: Recombinant Human FGFR1 alpha (IIIc) Fc Chimera Protein (R&D systems, 658-FR-050) (human) (UniProt P11362); assay: ELISA: FGFR1 alpha (IIIc)-Fc coated at 0.5 ug/ml; FGF sample at 80 ng/mL after 48 h at 37°C; detected with biotinylated anti-FGF antibody BAM233 and streptavidin-HRP; blank subtracted
[3] = target: Recombinant Human FGFR1 alpha (IIIc) Fc Chimera Protein (R&D systems, 658-FR-050) (human) (UniProt P11362); assay: ELISA: FGFR1 alpha (IIIc)-Fc coated at 0.5 ug/ml; FGF sample at 80 ng/mL after 0 h at 37°C; detected with biotinylated anti-FGF antibody BAM233 and streptavidin-HRP; blank subtracted
[4] = target: Recombinant Human FGFR1 alpha (IIIc) Fc Chimera Protein (R&D systems, 658-FR-050) (human) (UniProt P11362); assay: ELISA: FGFR1 alpha (IIIc)-Fc coated at 0.5 ug/ml; FGF sample at 80 ng/mL after 24 h at 37°C; detected with biotinylated anti-FGF antibody BAM233 and streptavidin-HRP; blank subtracted

Sequence of Recombinant Human FGFR1 alpha (IIIc) Fc Chimera Protein (R&D systems, 658-FR-050) (human) (P11362 22-376, change not shown): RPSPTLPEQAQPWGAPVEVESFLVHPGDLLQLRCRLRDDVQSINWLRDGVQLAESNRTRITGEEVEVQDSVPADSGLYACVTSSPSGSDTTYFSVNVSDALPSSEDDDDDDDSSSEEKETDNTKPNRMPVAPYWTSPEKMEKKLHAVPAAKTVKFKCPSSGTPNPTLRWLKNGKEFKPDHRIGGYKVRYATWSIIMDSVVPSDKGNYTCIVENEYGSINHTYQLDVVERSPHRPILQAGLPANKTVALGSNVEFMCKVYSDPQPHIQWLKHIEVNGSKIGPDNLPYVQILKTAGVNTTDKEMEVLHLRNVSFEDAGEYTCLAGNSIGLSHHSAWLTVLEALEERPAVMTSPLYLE

- Absorbance (450 nm) (absorbance (450 nm)) [1]: 2.1
- Absorbance (450 nm) (absorbance (450 nm)) [2]: 0.8
- Absorbance (450 nm) (absorbance (450 nm)) [3]: 2.3
- Absorbance (450 nm) (absorbance (450 nm)) [4]: 1.5
Substance: FGF301 (FGF2_native_Pig) (from UniProt P03969 10-155) (ligand)
